Assay results: patent publication US20070122405A1 (Human Genome Sciences, published 2007)

B1: 43E2, fully human IgG4 CCR5 monoclonal antibody (secreted by cell line NS0mAb43E2) (antibody, V domains shown)
VH: QVQLVESGGGVVQPGRSLRLSCAASGFTLSGYGMHWVRQAPGKGLEWVSLISYDGSNKYYADSVKGRFTISRDDSKNTLYLRMNSLRAEDTAVYYCARGRNDFWSGYYTAGMDVWGQGTTVTVSS
VL: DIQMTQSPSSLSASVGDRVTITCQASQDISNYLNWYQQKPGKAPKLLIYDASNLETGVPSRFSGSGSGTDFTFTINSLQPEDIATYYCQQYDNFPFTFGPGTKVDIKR
notes: also called Eu-43E2
B2: 43E2/AK38181, fully human IgG4 CCR5 monoclonal antibody (secreted by cell line NS0mAb43E2/AK38181) (antibody, V domains shown)
VH: QVQLVESGGGVVQPGRSLRLSCAASGFTLSGYGMHWVRQAPGKGLEWVSLISYDGSNKYYADSVKGRFTISRDDSKNTLYLRMNSLRAEDTAVYYCARGRNDFWSGYYTAGMDVWGQGTTVTVSS
VL: DIQMTQSPSSLSASVGDRVTITCQASQGIRKYLNWYQQKPGKVPKLLIYDASNLETGVPSRFSGSGSGTDFTFAISSLQPEDTATYYCQQYDDFPFTFGQGTRLEIKR
notes: also called Eu-43E2/AK38181

Assays:
[1] = biological target: T1, Human G-protein Chemokine Receptor (CCR5) HDGNR10 (human, UniProt P51681 1-352); test: cell-based or functional assay
[2] = biological target: T1, Human G-protein Chemokine Receptor …; test: cell-based or functional assay; remark: listed apart in the source
[3] = biological target: T1, Human G-protein Chemokine Receptor …; test: cell-based or functional assay; remark: listed apart in the source
[4] = biological target: T1, Human G-protein Chemokine Receptor …; test: cell-based or functional assay; remark: listed apart in the source
[5] = biological target: T1, Human G-protein Chemokine Receptor …; test: saturation binding of Eu-labelled antibody to CEM.NKR-CCR5 transfected cells, time resolved fluorometry
Source text: (§1) The 43E2 and 43E2/AK38181 antibodies were labeled with Europium (Eu) using Dissociation-Enhanced Lanthanide Fluorescence Immunoassay (DELFIA™) Eu-labeling kit (Catalog #1244-302, Perkin Elmer Life Sciences, Boston, Mass.) following the manufacturer's instructions. The labeling agent is the Eu-chelate of N1-(p-isothiocynateobenzyl) diethylenetriamine N1, N2, N3, N3-tetraacetic acid (DTTA). The DTTA group forms a stable complex with Eu³⁺ and the isothiocynate group reacts with primary amino groups on the antibodies at alkaline pH to form a stable, covalent thiourea bond. […] The Eu³⁺ content and protein concentration of each labeled antibody was determined.
(§2) The Eu-43E2 and Eu-43E2/AK38181 saturation binding assays were performed in 96 well plates, with 0.3-0.5 million CEM.NKR-CCR5 transfected cells per well, and various concentrations of Eu-43E2 and Eu-43E2/AK38181 in the absence or presence of 100-fold excess of unlabeled CCR5mAb004 for 1 hour at room temperature (RT). […] The fluorescence emitted from the released Eu was determined by time resolved fluorometry (VICTOR 1420 DELFIA™ fluorometer, Wallac Oy, Turku, Finland). The data were analyzed on Prizm software (GraphPad Software, San Diego, Calif.) to determine the equilibrium dissociation constant (Kd).

[6] = biological target: T1, Human G-protein Chemokine Receptor …; test: cell-based or functional assay; remark: listed apart in the source
[7] = biological target: T1, Human G-protein Chemokine Receptor …; test: cell-based or functional assay; remark: listed apart in the source
[8] = biological target: T1, Human G-protein Chemokine Receptor …; test: saturation binding of Eu-labelled antibodies to CEM.NKR-CCR5 transfected cells
Source text: as §1, §2

T1 sequence (P51681 whole entry): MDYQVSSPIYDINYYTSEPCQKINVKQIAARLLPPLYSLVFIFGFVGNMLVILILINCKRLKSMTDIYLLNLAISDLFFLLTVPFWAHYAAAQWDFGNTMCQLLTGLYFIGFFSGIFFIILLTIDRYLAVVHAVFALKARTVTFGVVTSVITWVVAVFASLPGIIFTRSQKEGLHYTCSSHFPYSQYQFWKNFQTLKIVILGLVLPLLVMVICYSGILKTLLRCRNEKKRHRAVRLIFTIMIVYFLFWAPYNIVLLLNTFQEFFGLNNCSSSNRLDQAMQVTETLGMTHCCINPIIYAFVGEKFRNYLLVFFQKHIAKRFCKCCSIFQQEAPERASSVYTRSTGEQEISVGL

| Binder | Median IC50, inhibition of HIV-1-luciferase pseudotyped viruses [1] [nM] | IC50 of entry of HIV-1-luciferase pseudotyped with env of 92BR025 (clade B) into U87/CD4/CCR5 cells [3] [nM] | IC50 of entry of HIV-1-luciferase pseudotyped with env of 92RW009 (clade A) into U87/CD4/CCR5 cells [3] [nM] | IC50 of entry of HIV-1-luciferase pseudotyped with env of 92TH001 (clade E) into U87/CD4/CCR5 cells [3] [pM] | IC50 of entry of HIV-1-luciferase pseudotyped with env of 92UG005 (clade D) into U87/CD4/CCR5 cells [3] [nM] | IC50 of entry of HIV-1-luciferase pseudotyped with env of 93IN101 (clade C) into U87/CD4/CCR5 cells [3] [nM] | IC50 of entry of HIV-1-luciferase pseudotyped with env of 301657 (clade B) into U87/CD4/CCR5 cells [3] [µM] | IC50 of entry of HIV-1-luciferase pseudotyped with env of 301714 (clade B) into U87/CD4/CCR5 cells [3] [µM] | IC50 of entry of HIV-1-luciferase pseudotyped with env of 302056 (clade B) into U87/CD4/CCR5 cells [3] [nM] | IC50 of entry of HIV-1-luciferase pseudotyped with env of 'Enfuvirtide Resistant' (B/Enfuvirtide Resistant) into U87/CD4/CCR5 cells [3] [nM] | IC50 of entry of HIV-1-luciferase pseudotyped with env of ASJM108 (clade B) into U87/CD4/CCR5 cells [3] [nM] | IC50 of entry of HIV-1-luciferase pseudotyped with env of ASM80 (clade B) into U87/CD4/CCR5 cells [3] [nM] | IC50 of entry of HIV-1-luciferase pseudotyped with env of DU151 (clade C) into U87/CD4/CCR5 cells [3] [nM] | IC50 of entry of HIV-1-luciferase pseudotyped with env of JRCSFSDM DIM (B/Enfuvirtide Resistant) into U87/CD4/CCR5 cells [3] [nM] | IC50 of entry of HIV-1-luciferase pseudotyped with env of JRFL (clade B) into U87/CD4/CCR5 cells [3] [nM] | IC50 of entry of HIV-1-luciferase pseudotyped with env of RU570 (clade G) into U87/CD4/CCR5 cells [3] [nM] | Mean IC50 over the panel of HIV-1-luciferase pseudotyped viruses, entry into U87/CD4/CCR5 cells [3] [nM] | Median IC50 over the panel of HIV-1-luciferase pseudotyped viruses, entry into U87/CD4/CCR5 cells [3] [nM] | IC50 (read off the curve), HIV-1-JRFL entry, Donor 3 target cells [4] [nM] | Kd [5] [nM] | other results |
| --- | --- | --- | --- | --- | --- | --- | --- | --- | --- | --- | --- | --- | --- | --- | --- | --- | --- | --- | --- | --- | --- |
| B1 | 5.8 | 5.6 | 3.2 | 1200 | 2.4 | 1 | 0.0225 | 0.0359 | 8 | 8.5 | 8.7 | 7.7 | 2.2 | 9.7 | 5.5 | 5.2 | 8.4 | 5.8 | ~800 | 2.36 | percent of HIV-1-JRFL entry blocked at the highest concentrations tested (up to 2000 nM) [2]: ≤ 60%; IC50 (read off the curve), HIV-1-JRFL entry, Donor 1 target cells [6]: ~1000 nM; IC50 (read off the curve), HIV-1-JRFL entry, Donor 2 target cells [7]: ~800 nM |
| B2 | 1.7 | 1 | 1.1 | 600 | 1.4 | 1.1 | 0.0044 | 0.005 | 2.3 | 2.5 | 2.2 | 2 | 1.3 | 2.8 | 2.2 | 1.7 | 2.1 | 1.7 | ~20 | 1.18 | fold lower IC50 than 43E2, HIV-1-JRFL entry into activated human T-cells [2]: ≥ 10 fold; fold lower IC50 than 43E2, inhibition of HIV-1 entry into U87/CD4/CCR5 cells [2]: ~3 fold; fold lower IC90 than 43E2, inhibition of HIV-1 entry into U87/CD4/CCR5 cells [2]: ~10 fold; fold difference in binding affinity against 43E2 [8]: ~2 fold; IC50 (read off the curve), HIV-1-JRFL entry, Donor 1 target cells [6]: ~100 nM; IC50 (read off the curve), HIV-1-JRFL entry, Donor 2 target cells [7]: ~60 nM |
